Test system: Escherichia coli TOP10
Experiment: shrunken log2 fold change of peptide-encoding DNA abundance (4.5 h post-induction vs induction); higher = less antimicrobial activity (less host growth inhibition)
Conditions: time post-induction: 4.5 h; library: site-saturation at positions 5, 18, 19, 20
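Note: peptides expressed intracellularly from a pBAD plasmid library in pooled LB shake-flask culture, induced with 0.3% L-arabinose, DNA abundance read by NGS, three biological replicates, DESeq2 with apeglm shrinkage.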

Sequence	shrunken log2 fold change
RRIRERPPRLPRPRPRPFEAPRP	-0.342
RRIRCRPPRLPRPRPRPFFIPRP	-0.484
RRIRLRPPRLPRPRPRPNWWPRP	0.117
RRIRSRPPRLPRPRPRPQTVPRP	-0.26
RRIRARPPRLPRPRPRPPMWPRP	0.805
RRIRMRPPRLPRPRPRPVVLPRP	0.272
RRIRHRPPRLPRPRPRPNNFPRP	-0.0738
RRIRPRPPRLPRPRPRPGPKPRP	0.394
RRIRKRPPRLPRPRPRPTRQPRP	0.724
RRIRHRPPRLPRPRPRPHNNPRP	-0.714
RRIRGRPPRLPRPRPRPGKMPRP	0.224
RRIRWRPPRLPRPRPRPQNVPRP	-0.0645
RRIRMRPPRLPRPRPRPFADPRP	2.11
RRIRIRPPRLPRPRPRPCPPPRP	-0.328
RRIRRRPPRLPRPRPRPENGPRP	0.401
RRIRARPPRLPRPRPRPDVAPRP	1.35
RRIRMRPPRLPRPRPRPYEQPRP	-0.222
RRIRHRPPRLPRPRPRPTYAPRP	-0.127
RRIRKRPPRLPRPRPRPQKTPRP	0.167
RRIRHRPPRLPRPRPRPRGRPRP	-0.0974
RRIRYRPPRLPRPRPRPCKLPRP	-0.698
RRIRDRPPRLPRPRPRPHCTPRP	-0.0502
RRIRFRPPRLPRPRPRPRWRPRP	0.382
RRIRYRPPRLPRPRPRPTERPRP	-0.532
RRIRSRPPRLPRPRPRPKCHPRP	-0.31

Sequence	shrunken log2 fold change
RRIRYRPPRLPRPRPRPHCDPRP	-0.0698
RRIRARPPRLPRPRPRPNLDPRP	-0.152
RRIRMRPPRLPRPRPRPGWGPRP	1.2
RRIRARPPRLPRPRPRPQIEPRP	0.234
RRIRERPPRLPRPRPRPIAAPRP	0.466
RRIRCRPPRLPRPRPRPSSSPRP	-0.366
RRIRLRPPRLPRPRPRPDMVPRP	-0.175
RRIRARPPRLPRPRPRPNMWPRP	0.188
RRIRMRPPRLPRPRPRPHSTPRP	0.126
RRIRSRPPRLPRPRPRPHTFPRP	-1.36
RRIRHRPPRLPRPRPRPGAFPRP	0.175
RRIRCRPPRLPRPRPRPAQYPRP	-0.467
RRIRMRPPRLPRPRPRPNPPPRP	0.311
RRIRTRPPRLPRPRPRPAHPPRP	0.396
RRIRERPPRLPRPRPRPVVLPRP	-0.0819
RRIRIRPPRLPRPRPRPQSLPRP	-0.321
RRIRNRPPRLPRPRPRPSKVPRP	0.0123
RRIRWRPPRLPRPRPRPMWCPRP	-0.166
RRIRRRPPRLPRPRPRPKCAPRP	0.884
RRIRDRPPRLPRPRPRPAMNPRP	0.139
RRIRWRPPRLPRPRPRPIYTPRP	-0.412
RRIRPRPPRLPRPRPRPDVTPRP	-0.399
RRIRIRPPRLPRPRPRPTLSPRP	-0.0751
RRIRWRPPRLPRPRPRPPYWPRP	0.204
RRIRERPPRLPRPRPRPHRWPRP	0.0978

Sequence	shrunken log2 fold change
RRIRWRPPRLPRPRPRPMSQPRP	0.0791
RRIRTRPPRLPRPRPRPNEHPRP	-0.198
RRIRIRPPRLPRPRPRPMMLPRP	-0.0496
RRIRLRPPRLPRPRPRPGKWPRP	0.121
RRIRSRPPRLPRPRPRPIPTPRP	0.2
RRIRKRPPRLPRPRPRPGYIPRP	0.0313
RRIRRRPPRLPRPRPRPVARPRP	0.896
RRIRHRPPRLPRPRPRPSIYPRP	-0.418
RRIRRRPPRLPRPRPRPFAIPRP	0.102
RRIRWRPPRLPRPRPRPLFKPRP	-0.242
RRIRLRPPRLPRPRPRPVGRPRP	0.215
RRIRCRPPRLPRPRPRPTSLPRP	-0.167
RRIRWRPPRLPRPRPRPRCGPRP	0.672
RRIRLRPPRLPRPRPRPRISPRP	0.0807
RRIRARPPRLPRPRPRPRCAPRP	0.716
RRIRCRPPRLPRPRPRPRQQPRP	-0.245
RRIRYRPPRLPRPRPRPGWAPRP	0.0172
RRIRPRPPRLPRPRPRPIPNPRP	-0.353
RRIRTRPPRLPRPRPRPYTKPRP	-0.248
RRIRERPPRLPRPRPRPMTMPRP	-0.136
RRIRTRPPRLPRPRPRPHSFPRP	-0.0168
RRIRDRPPRLPRPRPRPLQNPRP	0.338
RRIRARPPRLPRPRPRPALGPRP	0.73
RRIRSRPPRLPRPRPRPGSPPRP	0.106
RRIRKRPPRLPRPRPRPKWVPRP	0.339

Sequence	shrunken log2 fold change
RRIRTRPPRLPRPRPRPLNHPRP	-0.204
RRIRDRPPRLPRPRPRPVSFPRP	-0.191
RRIRSRPPRLPRPRPRPMARPRP	0.101
RRIRQRPPRLPRPRPRPAMDPRP	-0.00901
RRIRVRPPRLPRPRPRPGRVPRP	0.405
RRIRFRPPRLPRPRPRPKYAPRP	-0.145
RRIRTRPPRLPRPRPRPNYSPRP	-0.382
RRIRRRPPRLPRPRPRPVYYPRP	-0.223
RRIRFRPPRLPRPRPRPLECPRP	-0.0348
RRIRWRPPRLPRPRPRPEHLPRP	-0.138
RRIRGRPPRLPRPRPRPEWEPRP	0.00476
RRIRYRPPRLPRPRPRPNLTPRP	-0.372
RRIRYRPPRLPRPRPRPIWYPRP	-0.0575
RRIRHRPPRLPRPRPRPDWQPRP	0.00196
RRIRTRPPRLPRPRPRPCYAPRP	-0.215
RRIRDRPPRLPRPRPRPKYTPRP	-0.214
RRIRIRPPRLPRPRPRPWRTPRP	-1.03
RRIRKRPPRLPRPRPRPMDEPRP	0.966
RRIRGRPPRLPRPRPRPDEYPRP	0.168
RRIRRRPPRLPRPRPRPHGDPRP	0.0543
RRIRFRPPRLPRPRPRPVYWPRP	-0.195
RRIRVRPPRLPRPRPRPWHHPRP	0.0243
RRIRCRPPRLPRPRPRPITAPRP	-3.59e-05
RRIRERPPRLPRPRPRPFNTPRP	-0.124
RRIRDRPPRLPRPRPRPWSSPRP	0.0046

Sequence	shrunken log2 fold change
RRIRSRPPRLPRPRPRPGQWPRP	-0.0109
RRIRMRPPRLPRPRPRPWLVPRP	0.0862
RRIRTRPPRLPRPRPRPEFLPRP	-0.536
RRIRWRPPRLPRPRPRPMLWPRP	0.0929
RRIRYRPPRLPRPRPRPNKAPRP	-0.0417
RRIRQRPPRLPRPRPRPIHAPRP	-0.0062
RRIRNRPPRLPRPRPRPEEQPRP	0.202
RRIRPRPPRLPRPRPRPLWWPRP	0.649
RRIRIRPPRLPRPRPRPAPHPRP	-0.0179
RRIRDRPPRLPRPRPRPLEEPRP	0.0347
RRIRFRPPRLPRPRPRPLYYPRP	-0.885
RRIRQRPPRLPRPRPRPCWMPRP	-0.408
RRIRMRPPRLPRPRPRPCNEPRP	-0.249
RRIRSRPPRLPRPRPRPASFPRP	-0.226
RRIRSRPPRLPRPRPRPNLSPRP	-0.425
RRIRRRPPRLPRPRPRPLMDPRP	0.235
RRIRWRPPRLPRPRPRPNTLPRP	-0.359
RRIRPRPPRLPRPRPRPRTEPRP	0.306
RRIRMRPPRLPRPRPRPGTEPRP	0.562
RRIRVRPPRLPRPRPRPPAEPRP	0.253
RRIRTRPPRLPRPRPRPQHIPRP	-0.554
RRIRERPPRLPRPRPRPFWQPRP	-0.0859
RRIRDRPPRLPRPRPRPPQCPRP	0.243
RRIRPRPPRLPRPRPRPQEFPRP	0.0774
RRIRMRPPRLPRPRPRPHFMPRP	-0.127

Sequence	shrunken log2 fold change
RRIRTRPPRLPRPRPRPFFWPRP	0.276
RRIRFRPPRLPRPRPRPERAPRP	0.611
RRIRLRPPRLPRPRPRPQMWPRP	0.0549
RRIRVRPPRLPRPRPRPDQDPRP	0.0425
RRIRPRPPRLPRPRPRPEATPRP	0.33
RRIRSRPPRLPRPRPRPPQNPRP	0.294
RRIRDRPPRLPRPRPRPIRKPRP	0.0201
RRIRTRPPRLPRPRPRPFLRPRP	-0.0935
RRIRVRPPRLPRPRPRPEDMPRP	-0.115
RRIRIRPPRLPRPRPRPHDIPRP	-0.146
RRIRPRPPRLPRPRPRPHPPPRP	0.397
RRIRHRPPRLPRPRPRPWQRPRP	-0.1
RRIRHRPPRLPRPRPRPMMRPRP	0.0201
RRIRDRPPRLPRPRPRPLFIPRP	-0.184
RRIRFRPPRLPRPRPRPSEGPRP	0.0716
RRIRTRPPRLPRPRPRPWPGPRP	0.0416
RRIRHRPPRLPRPRPRPYDDPRP	-0.00822
RRIRARPPRLPRPRPRPNQHPRP	-0.124
RRIRGRPPRLPRPRPRPNQHPRP	0.189
RRIRCRPPRLPRPRPRPWRDPRP	-0.0798
RRIRCRPPRLPRPRPRPLSTPRP	-0.229
RRIRIRPPRLPRPRPRPIVFPRP	-0.144
RRIRMRPPRLPRPRPRPGICPRP	0.507
RRIRWRPPRLPRPRPRPWYAPRP	-0.746
RRIRCRPPRLPRPRPRPYFLPRP	-0.823

Reference: the supplement of paper PMC9112550, “Optimization of the antimicrobial peptide Bac7 by deep mutational scanning” (BMC Biology, 2022)
